Holding throughout (assay): high-throughput RNA pulldown from lysate on Ni-NTA beads; HRP: 50 mM Tris pH 8, 150 mM NaCl, 1 mM beta-mercaptoethanol, 50 ug/ml BSA, 3 ug/ml yeast RNA, 0.5% heparin; ITC and FP: Tris pH 8, 200 mM KCl, 5% glycerol; MST: 50 mM Tris pH 8, 200 mM NaCl, 1 mM DTT, BSA, heparin, 0.05% Tween 20
Holding throughout (settings): tags: N-terminal His-eGFP

For series [1], the target named is T1, GFP-9S library array, motif 4 ND N98V;D124K (synthetic construct, N98V;D124K).
T1 chain: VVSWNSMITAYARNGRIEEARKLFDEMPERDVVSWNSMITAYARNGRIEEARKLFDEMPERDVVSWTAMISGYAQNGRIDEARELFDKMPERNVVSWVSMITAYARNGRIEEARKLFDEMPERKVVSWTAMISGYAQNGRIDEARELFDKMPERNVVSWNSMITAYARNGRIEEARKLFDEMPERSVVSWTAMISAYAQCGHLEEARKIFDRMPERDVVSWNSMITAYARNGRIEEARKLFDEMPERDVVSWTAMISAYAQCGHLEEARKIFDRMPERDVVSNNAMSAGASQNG

The target in series [2] is T2, GFP-9S library array, motif 4 ND D124Q (synthetic construct, D124Q).
T2 chain: T1 chain with V98N, K124Q

The target of series [3] is T3, GFP-9S library array, motif 4 ND N98F;D124P (synthetic construct, N98F;D124P).
T3 chain: T1 chain with V98F, K124P

In series [4] the target is T4, GFP-9S library array, motif 4 ND N98D;D124Y (synthetic construct, N98D;D124Y).
T4 chain: T1 chain with V98D, K124Y

The target in series [5] is T5, GFP-9S library array, motif 4 ND N98H;D124N (synthetic construct, N98H;D124N).
T5 chain: T1 chain with V98H, K124N

Changes are numbered by the printed parent chain.

For AUUAAACGUGA (ssRNA) [IR-rpoA-A], the Kd worked out at 146 nM in series [1] (label: 5' IRDye 800CW); 490 nM in series [2] (label: 5' IRDye 800CW); 393 nM in series [3] (label: 5' IRDye 800CW); 1180 nM in series [4] (label: 5' IRDye 800CW); 189 nM in series [5] (label: 5' IRDye 800CW).
Take AUUAGACGUGA (ssRNA) [Cy5-rpoA-G]: the Kd in series [1] (label: 5' Cy5) was found to be 91.4 nM; in series [2] (label: 5' Cy5), 898 nM; in series [3] (label: 5' Cy5), 181 nM; in series [4] (label: 5' Cy5) it was 246 nM; in series [5] (label: 5' Cy5), 149 nM.
Consider AUUACACGUGA (ssRNA) [Cy5-rpoA], for which the Kd came to 97.1 nM in series [1] (label: 5' Cy5); 68 nM in series [2] (label: 5' Cy5); 140 nM in series [3] (label: 5' Cy5); 153 nM in series [4] (label: 5' Cy5); 36.1 nM in series [5] (label: 5' Cy5).
Regarding AUUAUACGUGA (ssRNA) [IR-rpoA-U], the equilibrium dissociation constant (Kd) in series [1] (label: 5' IRDye 800CW) is 128 nM; in series [2] (label: 5' IRDye 800CW), 25.9 nM; in series [3] (label: 5' IRDye 800CW), 196 nM; in series [4] (label: 5' IRDye 800CW), 266 nM; in series [5] (label: 5' IRDye 800CW), 30.8 nM.
